Data on 2 molecules can be found in publication PMC6158738.

Series [1] addresses PfuHAN_DND E562A (Pyrococcus furiosus). The series can be described thus: SEC.
Another series deals with T1, PfuHAN wt (Pyrococcus furiosus, UniProt Q8U3Q7 1-740).
T1 sequence: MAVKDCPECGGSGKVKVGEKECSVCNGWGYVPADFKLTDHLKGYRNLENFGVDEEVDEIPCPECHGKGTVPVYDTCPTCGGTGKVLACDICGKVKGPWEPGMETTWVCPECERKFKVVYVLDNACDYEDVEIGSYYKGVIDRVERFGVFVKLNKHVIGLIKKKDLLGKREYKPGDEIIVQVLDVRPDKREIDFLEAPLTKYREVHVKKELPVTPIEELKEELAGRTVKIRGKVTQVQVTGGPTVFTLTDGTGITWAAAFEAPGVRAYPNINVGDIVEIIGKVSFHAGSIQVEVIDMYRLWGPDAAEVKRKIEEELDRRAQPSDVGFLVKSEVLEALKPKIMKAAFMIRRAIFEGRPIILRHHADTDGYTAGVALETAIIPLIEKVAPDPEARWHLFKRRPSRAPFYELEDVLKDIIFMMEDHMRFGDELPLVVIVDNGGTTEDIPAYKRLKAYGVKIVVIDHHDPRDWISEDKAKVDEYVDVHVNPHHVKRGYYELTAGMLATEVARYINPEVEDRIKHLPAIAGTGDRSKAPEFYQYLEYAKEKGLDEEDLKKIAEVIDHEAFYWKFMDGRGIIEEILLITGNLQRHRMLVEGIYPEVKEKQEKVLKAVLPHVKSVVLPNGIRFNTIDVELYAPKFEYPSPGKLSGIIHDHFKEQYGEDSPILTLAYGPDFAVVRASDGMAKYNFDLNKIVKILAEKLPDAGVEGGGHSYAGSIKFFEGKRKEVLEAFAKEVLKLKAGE
The series can be described thus: MST.

In the next series the target is T2, PfuHAN-D4 (Pyrococcus furiosus, UniProt Q8U3Q7 112-740).
T2 sequence: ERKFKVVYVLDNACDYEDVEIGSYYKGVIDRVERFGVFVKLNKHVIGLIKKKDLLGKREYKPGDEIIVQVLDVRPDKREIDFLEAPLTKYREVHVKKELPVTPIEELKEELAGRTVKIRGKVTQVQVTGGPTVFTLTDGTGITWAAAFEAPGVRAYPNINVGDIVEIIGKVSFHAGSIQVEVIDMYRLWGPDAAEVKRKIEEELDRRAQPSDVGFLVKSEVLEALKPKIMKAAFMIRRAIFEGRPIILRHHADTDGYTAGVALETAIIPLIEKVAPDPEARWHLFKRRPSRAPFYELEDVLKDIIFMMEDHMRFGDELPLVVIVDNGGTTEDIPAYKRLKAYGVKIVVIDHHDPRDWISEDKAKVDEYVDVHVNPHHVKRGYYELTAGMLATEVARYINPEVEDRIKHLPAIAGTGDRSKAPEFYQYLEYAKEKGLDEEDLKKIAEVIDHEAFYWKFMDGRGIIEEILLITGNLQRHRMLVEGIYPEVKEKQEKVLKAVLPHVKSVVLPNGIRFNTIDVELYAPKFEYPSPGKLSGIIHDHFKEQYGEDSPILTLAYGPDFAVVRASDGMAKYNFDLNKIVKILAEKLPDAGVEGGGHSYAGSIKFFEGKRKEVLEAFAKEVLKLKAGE
The series can be described thus: EMSA.

A further series has as its target T3, PfuHAN-D1 (Pyrococcus furiosus, UniProt Q8U3Q7 305-740).
T3 sequence: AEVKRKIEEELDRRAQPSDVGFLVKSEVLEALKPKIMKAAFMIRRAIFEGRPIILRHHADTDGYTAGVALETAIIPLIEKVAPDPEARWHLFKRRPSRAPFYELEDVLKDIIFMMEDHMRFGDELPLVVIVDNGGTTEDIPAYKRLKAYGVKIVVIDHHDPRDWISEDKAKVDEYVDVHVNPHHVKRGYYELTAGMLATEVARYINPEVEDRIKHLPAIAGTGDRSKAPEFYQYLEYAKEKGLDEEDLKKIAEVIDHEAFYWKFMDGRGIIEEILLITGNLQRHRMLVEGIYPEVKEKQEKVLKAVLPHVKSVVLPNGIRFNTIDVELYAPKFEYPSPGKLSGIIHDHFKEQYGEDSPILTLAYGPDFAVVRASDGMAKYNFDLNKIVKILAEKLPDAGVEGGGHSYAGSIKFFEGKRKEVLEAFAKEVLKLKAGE
Description: EMSA.

A further series has as its target T4, PfuHAN-D5 (Pyrococcus furiosus, UniProt Q8U3Q7 50-740).
T4 sequence: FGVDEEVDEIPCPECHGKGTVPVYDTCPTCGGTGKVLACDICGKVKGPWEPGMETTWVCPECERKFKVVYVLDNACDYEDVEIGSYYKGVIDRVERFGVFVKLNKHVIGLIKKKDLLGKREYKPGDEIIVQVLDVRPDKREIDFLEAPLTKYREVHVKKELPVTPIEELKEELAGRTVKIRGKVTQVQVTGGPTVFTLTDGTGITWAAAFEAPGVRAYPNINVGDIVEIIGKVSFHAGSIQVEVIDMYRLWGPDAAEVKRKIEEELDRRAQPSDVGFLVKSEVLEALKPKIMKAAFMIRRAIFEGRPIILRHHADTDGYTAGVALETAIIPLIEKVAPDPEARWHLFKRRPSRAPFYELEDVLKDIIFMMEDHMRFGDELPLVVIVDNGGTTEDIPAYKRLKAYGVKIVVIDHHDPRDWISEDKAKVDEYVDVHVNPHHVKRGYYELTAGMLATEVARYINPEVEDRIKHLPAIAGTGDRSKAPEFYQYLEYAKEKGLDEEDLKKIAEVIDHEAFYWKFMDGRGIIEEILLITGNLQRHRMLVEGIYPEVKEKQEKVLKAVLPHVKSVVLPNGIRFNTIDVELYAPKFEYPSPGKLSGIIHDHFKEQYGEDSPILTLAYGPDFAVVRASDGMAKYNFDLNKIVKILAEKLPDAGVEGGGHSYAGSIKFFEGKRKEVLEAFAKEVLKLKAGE
The series can be described thus: EMSA.

The next series concerns the target T5, PfuHAN-D3 (Pyrococcus furiosus, UniProt Q8U3Q7 201-740).
T5 sequence: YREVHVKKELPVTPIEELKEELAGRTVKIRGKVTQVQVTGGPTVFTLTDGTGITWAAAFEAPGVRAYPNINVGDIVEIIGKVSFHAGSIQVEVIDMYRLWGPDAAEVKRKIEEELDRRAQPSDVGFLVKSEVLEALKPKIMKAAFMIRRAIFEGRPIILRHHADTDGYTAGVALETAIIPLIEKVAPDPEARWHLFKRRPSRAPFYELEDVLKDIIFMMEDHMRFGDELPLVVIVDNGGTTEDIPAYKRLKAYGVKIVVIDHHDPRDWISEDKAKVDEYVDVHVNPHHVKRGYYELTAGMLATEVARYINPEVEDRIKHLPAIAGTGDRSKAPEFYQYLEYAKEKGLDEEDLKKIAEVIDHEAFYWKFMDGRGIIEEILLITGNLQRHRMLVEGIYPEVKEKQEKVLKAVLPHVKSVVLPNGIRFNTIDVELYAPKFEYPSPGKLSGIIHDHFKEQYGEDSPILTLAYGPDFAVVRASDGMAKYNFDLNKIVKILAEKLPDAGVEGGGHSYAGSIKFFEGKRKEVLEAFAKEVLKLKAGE
Description: EMSA.

The target of the next series is T6, PfuHAN-D2 (Pyrococcus furiosus, UniProt Q8U3Q7 227-740).
T6 sequence: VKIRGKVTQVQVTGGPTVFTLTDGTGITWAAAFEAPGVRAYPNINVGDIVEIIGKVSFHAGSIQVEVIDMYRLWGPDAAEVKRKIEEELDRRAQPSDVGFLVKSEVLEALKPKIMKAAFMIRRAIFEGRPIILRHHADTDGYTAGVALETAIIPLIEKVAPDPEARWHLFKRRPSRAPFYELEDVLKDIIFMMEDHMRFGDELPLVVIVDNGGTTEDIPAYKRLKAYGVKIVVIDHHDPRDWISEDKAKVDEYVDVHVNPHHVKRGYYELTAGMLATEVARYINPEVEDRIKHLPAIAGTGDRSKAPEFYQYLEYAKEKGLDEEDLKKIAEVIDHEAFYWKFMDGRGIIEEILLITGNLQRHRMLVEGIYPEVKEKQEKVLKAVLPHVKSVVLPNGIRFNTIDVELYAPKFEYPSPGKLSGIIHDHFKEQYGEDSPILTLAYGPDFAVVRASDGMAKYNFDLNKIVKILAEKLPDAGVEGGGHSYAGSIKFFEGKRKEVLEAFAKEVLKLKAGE
Description: EMSA.

Regarding PfuHAN_DND E562A (domain or fragment), the stoichiometry N in series [1] worked out at 3.
Regarding AGGCTGCGGTCGAGTTGACAGCACTGCACGCATTACTGAGCT (ssDNA) [42-nt ssDNA], the binding result in the series with PfuHAN wt, with PfuHAN-D4, with PfuHAN-D1, with PfuHAN-D5, with PfuHAN-D3 and in the series with PfuHAN-D2 was “no binding” each time.
